Measurements from patent US20250101117A1 (Genentech, published 2025).

Target: T1, oncostatin M receptor-beta (OSMRβ) (human, UniProt Q99650 28-979)
T1 sequence (looked up): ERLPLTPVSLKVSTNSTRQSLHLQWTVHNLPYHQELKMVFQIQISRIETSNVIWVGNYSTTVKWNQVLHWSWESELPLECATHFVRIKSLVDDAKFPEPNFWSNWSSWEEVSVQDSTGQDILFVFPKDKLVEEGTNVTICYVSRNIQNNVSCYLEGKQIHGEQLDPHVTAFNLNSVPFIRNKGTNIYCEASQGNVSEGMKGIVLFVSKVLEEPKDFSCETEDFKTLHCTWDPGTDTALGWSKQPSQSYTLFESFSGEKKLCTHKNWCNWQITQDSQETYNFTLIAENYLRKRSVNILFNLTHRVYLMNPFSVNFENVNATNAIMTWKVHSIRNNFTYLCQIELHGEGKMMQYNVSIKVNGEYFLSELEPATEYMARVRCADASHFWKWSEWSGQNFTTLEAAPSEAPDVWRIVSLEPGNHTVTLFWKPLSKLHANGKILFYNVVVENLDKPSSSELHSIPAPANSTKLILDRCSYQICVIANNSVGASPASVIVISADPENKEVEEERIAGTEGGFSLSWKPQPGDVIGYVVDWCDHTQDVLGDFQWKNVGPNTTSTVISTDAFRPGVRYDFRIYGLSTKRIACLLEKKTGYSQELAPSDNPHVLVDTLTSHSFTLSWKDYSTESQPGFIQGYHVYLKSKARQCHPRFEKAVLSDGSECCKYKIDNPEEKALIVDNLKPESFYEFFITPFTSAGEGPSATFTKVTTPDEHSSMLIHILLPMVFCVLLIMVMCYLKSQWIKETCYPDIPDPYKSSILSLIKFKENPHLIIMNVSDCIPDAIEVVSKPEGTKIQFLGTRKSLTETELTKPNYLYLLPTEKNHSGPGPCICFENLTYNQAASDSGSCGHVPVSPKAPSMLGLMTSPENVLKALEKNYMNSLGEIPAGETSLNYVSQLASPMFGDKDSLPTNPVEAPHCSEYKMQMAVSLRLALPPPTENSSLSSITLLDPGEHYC
Assay: cell-based or functional assay

Mean of IC50, inhibition of OSM-induced pSTAT3; IBD-derived intestinal fibroblasts, [OSM] 1 ng/mL (standard deviation 0.05): 0.14 nM
Mean of IC50, inhibition of OSM-induced pSTAT3; IBD-derived intestinal fibroblasts, [OSM] 10 ng/mL (standard deviation 0.36): 1.15 nM
Mean of IC50, inhibition of OSM-induced pSTAT3; normal keratinocytes, [OSM] 10 ng/mL (standard deviation 0.18): 0.36 nM
B1: Vixarelimab (antibody, human IgG4 S228P, lambda, N297Q, V domains shown)
VH: QVQLVQSGAEVKKPGASVKVSCKASGYTFTSYEINWVRQATGQGLEWMGWMNPNSGYTGYAQKFQGRVTMTRDTSISTAYMEMSSLRSEDTAVYYCARDIVAANTDYYFYYGMDVWGQGTTVTVSS
VL: QSVLTQPPSASGTPGQRVTISCSGSNSNIGSNTVNWYHQLPGTAPKLLIYNINKRPSGVPDRFSGSKSGSSASLAISGLQSEDEADYYCSTWDDSLDGVVFGGGTKLTVLG
